From patent US20110008340A1 (published 2011)
Where two headings read alike, the source gives them in different places. Values belong to the binder of their own block, whether it stands above or below them.

Experiments:
human C3b [1] = target: T1, human C3b (human, UniProt P01024 23-667; P01024 749-1663); assay: inhibition of properdin binding to C3b (ELISA)
[2] = target: Properdin peptide (71-110) …; assay: ELISA saturation binding
human C3b [3] = target: T1, human C3b; assay: inhibition of properdin binding to C3b (ELISA); remark: listed apart in the source

Properdin peptide (71-110) …, sequence (peptide, as listed by the source): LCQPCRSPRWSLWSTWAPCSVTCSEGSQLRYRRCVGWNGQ

- IC50 (human C3b [1]): 322 mg/L
Binder: CRSPRWSLWS [Properdin peptide CRSPRWSLWS (75-84)]

- Kd [2]: 0.161 µM
B1: MoAb^71-110 (antibody, V domains shown)
VH: QVLLQQSAPELARPGASVKMSCTASGYIFTNYPIHWVKQRPGQGLEWIGFIDPGGGYDEPDERFRDRATLTADKSSSTAYMQLSSLTSEDSAIYYCARRGGGYYLDYWGQDTTLTVSA
VL: SIVMTQTPKFLLVSAGDRITITCKASQSVNNDVAWYQQKPGQSPKLLIYYASNRYTGVPDRFTGSGYGTDFTFTITTVKAEDLAVYFCQQDYSSPLTFGAGTKLELK

- IC50 (human C3b [3]): 301 mg/L
Binder: RYRRCVGWNG [Properdin peptide RYRRCVGWNG (99-108)]
